For assay [1], the target named is M44-modified L NTAA target peptides (M44-L-P2-peptide). Nature of the assay: Gini coefficient of P2 tolerance from multiplex encoding heatmap.
The target is the same in assay [2]. Nature of the assay: Gini coefficient of P1 selectivity from multiplex encoding heatmap.
The target in assay [3] is M44-modified D NTAA target peptides. Nature of the assay: encoding assay; P2 S.
Assay [4] deals with M44-modified E NTAA target peptides. Nature of the assay: encoding assay; P2 S.
For assay [5], the target named is M44-modified N NTAA target peptides. Nature of the assay: encoding assay; P2 S.
The target in assay [6] is M44-modified S NTAA target peptides. Nature of the assay: encoding assay; P2 S.
For assay [7], the target named is M44-modified W NTAA target peptides. Nature of the assay: encoding assay; P2 S.
For assay [8], the target named is M44-modified G NTAA target peptides (M44-G-P2-peptide). Nature of the assay: encoding assay; P2 G.
In assay [9] the target is M44-modified A NTAA target peptides (M44-A-P2-peptide). Nature of the assay: encoding assay; P2 M.
Assay [10] has as its target M44-modified D NTAA target peptides. Nature of the assay: encoding assay; P2 M.
For assay [11], the target named is M44-modified G NTAA target peptides (M44-G-P2-peptide). Nature of the assay: encoding assay; P2 M.
Assay [12] addresses M44-modified H NTAA target peptides. Nature of the assay: encoding assay; P2 M.
Assay [13] deals with M44-modified Q NTAA target peptides. Nature of the assay: encoding assay; P2 M.
Assay [14] addresses M44-modified S NTAA target peptides. Nature of the assay: encoding assay; P2 M.
The target in assay [15] is M44-modified W NTAA target peptides. Nature of the assay: encoding assay; P2 M.
For assay [16], the target named is M44-modified A NTAA target peptides (M44-A-P2-peptide). Nature of the assay: Gini coefficient of P1 selectivity from multiplex encoding heatmap.
For assay [17], the target named is M17-modified A NTAA target peptides. Nature of the assay: encoding assay; P2 S.
The target in assay [18] is M17-modified D NTAA target peptides. Nature of the assay: encoding assay; P2 S.
Assay [19] concerns the target M17-modified E NTAA target peptides. Nature of the assay: encoding assay; P2 S.
Assay [20] deals with M17-modified F NTAA target peptides. Nature of the assay: encoding assay; P2 S.
Assay [21] concerns the target M17-modified G NTAA target peptides. Nature of the assay: encoding assay; P2 S.
Assay [22] has as its target M17-modified H NTAA target peptides. Nature of the assay: encoding assay; P2 S.
The target of assay [23] is M17-modified I NTAA target peptides. Nature of the assay: encoding assay; P2 S.
Assay [24] deals with M17-modified L NTAA target peptides. Nature of the assay: encoding assay; P2 S.
Assay [25] has as its target M17-modified M NTAA target peptides. Nature of the assay: encoding assay; P2 S.
Assay [26] has as its target M17-modified N NTAA target peptides. Nature of the assay: encoding assay; P2 S.
The target in assay [27] is M17-modified P NTAA target peptides. Nature of the assay: encoding assay; P2 S.
Assay [28] has as its target M17-modified Q NTAA target peptides. Nature of the assay: encoding assay; P2 S.
The target in assay [29] is M17-modified S NTAA target peptides. Nature of the assay: encoding assay; P2 S.
Assay [30] concerns the target M17-modified T NTAA target peptides. Nature of the assay: encoding assay; P2 S.
The target in assay [31] is M17-modified V NTAA target peptides. Nature of the assay: encoding assay; P2 S.
Assay [32] addresses M17-modified Y NTAA target peptides (M17-Y-P2-peptide). Nature of the assay: encoding assay; P2 S.
Assay [33] concerns the target M17-modified A NTAA target peptides. Nature of the assay: encoding assay; P2 M.
Assay [34] has as its target M17-modified D NTAA target peptides. Nature of the assay: encoding assay; P2 M.
Assay [35] addresses M17-modified E NTAA target peptides. Nature of the assay: encoding assay; P2 M.
Assay [36] concerns the target M17-modified F NTAA target peptides. Nature of the assay: encoding assay; P2 M.
Assay [37] deals with M17-modified G NTAA target peptides. Nature of the assay: encoding assay; P2 M.
Assay [38] has as its target M17-modified H NTAA target peptides. Nature of the assay: encoding assay; P2 M.
In assay [39] the target is M17-modified I NTAA target peptides. Nature of the assay: encoding assay; P2 M.
For assay [40], the target named is M17-modified L NTAA target peptides. Nature of the assay: encoding assay; P2 M.
For assay [41], the target named is M17-modified M NTAA target peptides. Nature of the assay: encoding assay; P2 M.
The target of assay [42] is M17-modified N NTAA target peptides. Nature of the assay: encoding assay; P2 M.
Assay [43] concerns the target M17-modified P NTAA target peptides. Nature of the assay: encoding assay; P2 M.
In assay [44] the target is M17-modified Q NTAA target peptides. Nature of the assay: encoding assay; P2 M.
The target in assay [45] is M17-modified S NTAA target peptides. Nature of the assay: encoding assay; P2 M.
For assay [46], the target named is M17-modified T NTAA target peptides. Nature of the assay: encoding assay; P2 M.
For assay [47], the target named is M17-modified V NTAA target peptides. Nature of the assay: encoding assay; P2 M.
Assay [48] has as its target M17-modified W NTAA target peptides. Nature of the assay: encoding assay; P2 M.
Assay [49] has as its target M17-modified Y NTAA target peptides (M17-Y-P2-peptide). Nature of the assay: encoding assay; P2 M.
For assay [50] the target is unchanged. Nature of the assay: Gini coefficient of P2 tolerance from multiplex encoding heatmap.
The target in assay [51] is M17-modified S NTAA target peptides. Nature of the assay: encoding assay; P2 A.
The target of assay [52] is M17-modified W NTAA target peptides. Nature of the assay: encoding assay; P2 G.
For assay [53], the target named is M17-modified M NTAA target peptides. Nature of the assay: encoding assay; P2 Q.

Where a chain is given by its changes, count along the chain named.

B1: engineered M44-L binder (SEQ ID NO: 21) (designed binder, not shown: small tags and cut ends; large carriers)
chain: QVSVQPNFQQDKFLGRWFYAGHASNSSWYREKVAALSMAKLVVAPATDGGLNATETFLRKNQCETITSLLQPAGSLGSYSSRSPHGGSTWSTSVVETDYDQYALLYLQGSKGPGEDFRGAILASRTQTPRAELKEKFTAFSKAQGFTEDTIVFLPQTDKCMTEQ
In [1], B1 gave a P2 score of 0.408. The molecule also showed a P1 score in assay [2] of 0.412.

B2: engineered M44-A binder (SEQ ID NO: 42) (designed binder, not shown: small tags and cut ends; large carriers)
chain: QVSVQPNFQQDKFLGRWFVAGLASNSSWDREKVAALSGAKMVVAPATDGGLNVTRTMLRKNQCETYTGLLQPAGSLGSYSWRSPHPGSTGSESVVETDYDQYALVYGQGSKGPGEDLRAAALWSRTQTPRAELKEKFTAFSKAQGFTEDTIVFLPQTDKCMTEQ
B2: the encoding yield in assay [3] was 0.02; in assay [4] it was 0.01; in assay [5] it was 0.01; in assay [6], 0.01; in assay [7], 0.01; in assay [8], 0.01. Besides, the encoding yield in assay [9] amounted to 0.1; in [10] it was 0.02; in assay [11] it was 0.04; in assay [12], 0.01; in assay [13], 0.01; in [14], 0.04. Moreover, the encoding yield in assay [15] was 0.01. The molecule further yielded a P1 score in assay [16] of 0.31.

B3: engineered M17-Y binder (SEQ ID NO: 61) (designed binder, not shown: small tags and cut ends; large carriers)
chain: TVPDRSEIAGKWYVVALASNTEFYLREKDWVKSAMARISFLGEDELKVSSAVPSPNGCYKVERTWKKTSDDGEVYNSRAAKLKVEVLDTDYKSYAVIYATRVKDGRTDHQMILYSRSPEVSPAATAIFRKLAGERNYTDEMVAMLPRQEECTVDEV
As to B3, the encoding yield was 0.02 in assay [17]; 0.01 in assay [18]; 0.01 in assay [19]; 0.04 in assay [20]; 0.03 in assay [21]; 0.02 in [22]. The encoding yield was 0.03 in assay [23]; 0.02 in assay [24]; 0.04 in assay [25]; 0.02 in assay [26]; 0.01 in assay [27]; 0.01 in [28]. Moreover, the encoding yield in assay [29] was 0.01; in [30], 0.02; in assay [31] it was 0.02; in assay [32] it was 0.1; in [33] it was 0.01; in assay [34], 0.02. The encoding yield in assay [35] was determined as 0.02; in assay [36] it was 0.03; in assay [37], 0.01; in assay [38], 0.01; in [39], 0.06; in assay [40], 0.02. Also, the encoding yield was found to be 0.01 in assay [41]; 0.02 in assay [42]; 0.02 in [43]; 0.01 in assay [44]; 0.01 in assay [45]; 0.04 in [46]. The encoding yield in [47] is 0.03; in assay [48], 0.01; in assay [49] it was 0.1. In addition, the P2 score in assay [50] amounted to 0.225.

B4: upgraded binder after additional maturation round (SEQ ID NO: 62) (designed binder, not shown: small tags and cut ends; large carriers)
chain: B3 chain with E27G, W30R, A36V, L41Q, G105R, E119D
As for B4, the encoding yield in assay [17] is 0.02; in assay [18], 0.02; in assay [19] it was 0.01; in [20], 0.07; in assay [21], 0.04; in assay [22] it was 0.03. Besides, the encoding yield in [23] is 0.05; in assay [24], 0.04; in [25], 0.04; in [26], 0.02; in [27], 0.02; in [28] it was 0.02. Also, the encoding yield in [29] is 0.01; in assay [30] it was 0.04; in assay [31], 0.03; in assay [32], 0.22; in [51] it was 0.01; in [52], 0.04. Also, the encoding yield in assay [33] came out at 0.02; in assay [34] it was 0.02; in assay [35], 0.03; in [36], 0.06; in assay [37], 0.02; in [38], 0.01. The encoding yield was found to be 0.1 in [39]; 0.04 in assay [40]; 0.02 in [41]; 0.02 in assay [42]; 0.03 in [43]; 0.01 in assay [44]. Besides, the encoding yield in assay [45] came to 0.01; in [46], 0.05; in assay [47], 0.03; in assay [48], 0.03; in [49], 0.23; in assay [53], 0.01. The P2 score in [50] was 0.128.

B5: engineered M44-L binder (SEQ ID NO: 31) (designed binder, not shown: small tags and cut ends; large carriers)
chain: QDSTQNLIPAPPLISVPLQPGFWTERFQGRWFLVGFAGNAVQKERQSRLTMQSLILELQEDNSYNITAINVRGQGCRYIISTLVPSSRPGQFTLGNIHSYPQIQSLDVQVADTDYDQFAMVFLQGTSENKQYFEVALAGRTKGLSDELKERFVSFAKSLGLKDNNIVFSVPTDQCIDN
For the molecule B5, the encoding yield in [3] is 0.02; in assay [4] it was 0.01; in [5], 0.01; in assay [6] it was 0.01; in assay [7] it was 0.01; in assay [9], 0.02. Further, the encoding yield turned out to be 0.01 in assay [10]; 0.01 in [11]; 0.01 in assay [12]; 0.01 in assay [13]; 0.01 in assay [14]; 0.03 in assay [15]. The P2 score in assay [1] is 0.331. In addition, the P1 score in assay [2] worked out at 0.332.

The values are drawn from patent US20230220589A1.
